According to patent US20130071366A1 (CANCER RESEARCH TECHNOLOGY, published 2013):
Numbering of substitutions follows the chain as printed. Numbers in names are those of the source.

B1: IGF2R domain 11 E1544A (receptor)
chain: NEHDDCQVTNPSTGHLFDLSSLSGRAGFTAAYSAKGLVYMSICGENENCPPGVGACFGQTRISVGKANKRLRYVDQVLQLVYKDGSPCPSKSGLSYKSVISFVCRPEAGPTNRPMLISLDKQTCTLFFSWHTPLACEQATHHHHHH
notes: Secreted from Pichia pastoris
B2: Fc-tagged enhanced mutant IGF2R domain 11 (11^E1544K-Fc) (Fc fusion)
chain: NEHDDCQVTNPSTGHLFDLSSLSGRAGFTAAYSKKGLVYMSICGENENCPPGVGACFGQTRISVGKANKRLRYVDQVLQLVYKDGSPCPSKSGLSYKSVISFVCRPEAGPTNRPMLISLDKQTCTLFFSWHTPLACEQAT
modifications: N-glycosylated with Man3GlcNAc2 (Drosophila cells)
notes: Homodimer, secreted from Drosophila D.Mel-2 cells; not shown: human IgG1 Fc domain, amplified from IMAGE clone 4851063 (ATCC-6878978)
B3: IGF2R domain 11, wild type, expressed in Pichia pastoris with C-terminal His6 tag (receptor)
chain: B1 chain with A34E
notes: Alpha-factor signal is cleaved during secretion; soluble 17 kDa protein; also called WT; wild type domain 11
B4: IGF2R domain 11 S1543A (receptor)
chain: B1 chain with S33A, A34E
notes: Secreted from Pichia pastoris
B5: IGF2R domain 11 G1619R (common human polymorphism) (receptor)
chain: B1 chain with A34E, G109R
notes: Secreted from Pichia pastoris
B6: IGF2R domain 11 K1545A (receptor)
chain: B1 chain with A34E, K35A
notes: Secreted from Pichia pastoris
B7: IGF2R domain 11 Y1542A (receptor)
chain: B1 chain with Y32A, A34E
notes: Secreted from Pichia pastoris
B8: IGF2R domain 11 T1570A (receptor)
chain: B1 chain with A34E, T60A
notes: Secreted from Pichia pastoris
B9: IGF2R domain 11 Q1569A (receptor)
chain: B1 chain with A34E, Q59A
notes: Secreted from Pichia pastoris
B10: IGF2R domain 11 S1596A (receptor)
chain: B1 chain with A34E, S86A
notes: Secreted from Pichia pastoris
B11: IGF2R domain 11 E1544V (receptor)
chain: B1 chain with A34V
notes: Secreted from Pichia pastoris
B12: IGF2R domain 11 E1544K (enhanced mutant) (receptor)
chain: B1 chain with A34K
notes: Secreted from Pichia pastoris
B13: IGF2R domain 11 with L at position 1544 (receptor)
chain: B1 chain with A34L
notes: Secreted from Pichia pastoris; also called E1544L
B14: IGF2R domain 11 with T at position 1544 (receptor)
chain: B1 chain with A34T
notes: Secreted from Pichia pastoris; also called E1544T
B15: IGF2R domain 11 with R at position 1544 (receptor)
chain: B1 chain with A34R
notes: Secreted from Pichia pastoris; also called E1544R
B16: IGF2R domain 11 with H at position 1544 (receptor)
chain: B1 chain with A34H
notes: Secreted from Pichia pastoris; also called E1544H
B17: IGF2R domain 11 with I at position 1544 (receptor)
chain: B1 chain with A34I
notes: Secreted from Pichia pastoris; also called E1544I
B18: IGF2R domain 11 with S at position 1544 (receptor)
chain: B1 chain with A34S
notes: Secreted from Pichia pastoris; also called E1544S
B19: IGF2R domain 11 with P at position 1544 (receptor)
chain: B1 chain with A34P
notes: Secreted from Pichia pastoris; also called E1544P
B20: IGF2R domain 11 with F at position 1544 (receptor)
chain: B1 chain with A34F
notes: Secreted from Pichia pastoris; also called E1544F
B21: IGF2R domain 11 with N at position 1544 (receptor)
chain: B1 chain with A34N
notes: Secreted from Pichia pastoris; also called E1544N
B22: IGF2R domain 11 with M at position 1544 (receptor)
chain: B1 chain with A34M
notes: Secreted from Pichia pastoris; also called E1544M
B23: IGF2R domain 11 with Q at position 1544 (receptor)
chain: B1 chain with A34Q
notes: Secreted from Pichia pastoris; also called E1544Q
B24: IGF2R domain 11 with G at position 1544 (receptor)
chain: B1 chain with A34G
notes: Secreted from Pichia pastoris; also called E1544G
B25: IGF2R domain 11 with Y at position 1544 (receptor)
chain: B1 chain with A34Y
notes: Secreted from Pichia pastoris; also called E1544Y
B26: IGF2R domain 11 with D at position 1544 (receptor)
chain: B1 chain with A34D
notes: Secreted from Pichia pastoris; also called E1544D
B27: IGF2R domain 11 with W at position 1544 (receptor)
chain: B1 chain with A34W
notes: Secreted from Pichia pastoris; also called E1544W
B28: IGF2R domain 11 I1572A (null mutant) (receptor)
chain: B1 chain with A34E, I62A
notes: Secreted from Pichia pastoris

The binders below were run against T1, Insulin-like Growth Factor II (IGF-II), recombinant human (human, UniProt P01344 25-91, biotinyl group (site not stated) when immobilised for SPR; not biotinylated as SPR analyte or in ITC) (assay: ITC).
T1 construct: mature; Bought as Biotinyl-IGF-II from GroPep for immobilisation on streptavidin chips; also called IGF2; Biotinyl-IGF-II
Experimental: Calorimetric measurements were performed using a VP-ITC microcalorimeter (MicroCal). All solutions were thoroughly degassed before use by stirring under vacuum. […] The sample cell contained either wild type domain 11 (7 uM) or the E1544A mutant (8 μM), also in HBS-E buffer. To correct for the heat effects of dilution and mixing, reaction heats obtained from a control experiment, in which IGF2 was injected into HBS-E, were subtracted. calorimetric data were analysed using MicroCal ORIGIN software (version 5.0) supplied with the instrument. Thermodynamic parameters were derived by fitting the binding isotherms to a single-site binding model. Values for dissociation affinity constants (KD) were determined from duplicate experiments.
In order to validate the SPR sensorgram data, ITC was used to assess the binding affinity between domain 11 and IGF-II. The affinity of the E1544A mutant was also assessed by ITC in order to confirm whether use of a second technique agreed as to the apparent increase in affinity (FIG. 6 and Table 6). Titrations were performed using […] injections of 40 μM IGF-II (after an initial 7.5 μl injection) into the reaction cell containing wild type domain 11 or the E1544A mutant. […] The two fold differences may be simply accounted for by the fidelity of both techniques.

T1 sequence (P01344 25-91): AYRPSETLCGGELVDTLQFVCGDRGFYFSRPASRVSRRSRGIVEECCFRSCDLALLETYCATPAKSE

relative affinity increase over wild type by ITC	Binder
~2 fold vs wild type domain 11	B1

What follows are binders tested against T1, Insulin-like Growth Factor II (IGF-II), … (assay: SPR, biotinyl-IGF-II immobilised).
Text: (§1) The affinity of versions of Fc-tagged domain 11 fusion proteins, and domain 11 constructs, for IGF-II were compared using surface plasmon resonance (BIAcore 3000). Attempts were made to immobilize Fc-tagged domain 11 proteins upon a sensor chip surface (CM5 and CM5-proteinA) but we encountered similar problems as described above with immobilised monomeric domain 11. Instead, immobilisation of biotinylated IGF-I and IGF-II on separate flow cells of a streptavidin coated sensor chip (BIAcore) generated reproducible sensorgram profiles when Fc-tagged and untagged domain 11 proteins were passed over the surface as analytes. The Fc-tagged domain 11 kinetic data performed in triplicate generated sensorgrams that were analyzed using a bivalent analyte model. […] Both Fc-tagged proteins appeared to have reduced off-rates compared to the untagged monomers.

RU response relative to 11-Fc at equal concentrations [fold vs 11-Fc]	Binder
~2	B2

What follows are binders tested against T1, Insulin-like Growth Factor II (IGF-II), … (assay: SPR, biotinyl-IGF-II immobilised, bivalent analyte model).
Text: as §1

molar affinity relative to 11-Fc [fold vs 11-Fc]	Binder
~2	B2

What follows are binders tested against T1, Insulin-like Growth Factor II (IGF-II), … (assay: SPR, steady-state KD relative to wild type domain 11).
Experimental: […]. Values are the mean±S.E.M. of three separate experiments.
(§2) Kinetic analysis by Surface Plasmon Resonance (SPR) was conducted on a BIAcore 3000 biosensor (BIAcore, Uppsala, Sweden) at 25° C. in HBS-EP (10 mM HEPES, pH 7.4, 150 mM NaCl, 3 mM EDTA, 0.005% surfactant P20) at a flow rate of 40 μl/min. […] Kinetic experiments consisted of a two minute injection of analyte followed by a 100s dissociation phase in running buffer, after which the binding surface was regenerated with a 2 minute injection of 2 M MgCl₂. A blank flow cell was used for in-line reference subtraction of changes due to differences in refractive index of running buffer versus sample and a buffer-only injection was used to subtract instrument noise and drift. Injections were performed in duplicate for each concentration and in a randomised order. Kinetic parameters were determined by global fitting of sensorgrams to a two-state (conformational change) binding model using BIAevaluation software version 4.0.1. In all cases the minor component made an insignificant contribution to the overall affinity and as such only the kinetic parameters of the major binding component were used. For each interaction the dissociation affinity constant (KD) was also calculated by fitting of the response of each concentration at equilibrium to a steady-state affinity model using BIAevaluation. In order to investigate the influence of ionic strength, kinetic experiments were conducted in HBS-EP running buffers containing the desired NaCl concentration. In each case, analyte samples were made up in the appropriate running buffer prior to injection.
Following purification, the binding of each mutant construct to IGF2 was assessed by SPR and compared to the wild type domain 11.

Relative Affinity	Binder
1 fold vs wild type domain 11	B3
0.39 fold vs wild type domain 11	B4
0.9 fold vs wild type domain 11	B5
0.36 fold vs wild type domain 11	B6
0.16 fold vs wild type domain 11	B7
0.11 fold vs wild type domain 11	B8
2.79 fold vs wild type domain 11	B1
0.8 fold vs wild type domain 11	B9
0.61 fold vs wild type domain 11	B10

Target: T1, Insulin-like Growth Factor II (IGF-II), …
Experiment: as above
Remark: another data set of the same source
Experimental: as §2, with “BIAevaluation.” for “BIAevaluation. In order to investigate the influence of ionic strength, kinetic experiments were conducted in HBS-EP running buffers containing the desired NaCl concentration. In each case, analyte samples were made up in the appropriate running buffer prior to injection.”

Relative Affinity	Binder
1 fold vs wild type domain 11	B3
1.96 fold vs wild type domain 11	B11
6.12 fold vs wild type domain 11	B12
2.79 fold vs wild type domain 11	B1

Target: T1, Insulin-like Growth Factor II (IGF-II), …
Experiment: as above
Remark: another data set of the same source

Relative Affinity	Binder
1 fold vs wild type domain 11	B3
2.02 fold vs wild type domain 11	B13
1.72 fold vs wild type domain 11	B14
1.96 fold vs wild type domain 11	B11
7.33 fold vs wild type domain 11	B15
3.07 fold vs wild type domain 11	B16
2.43 fold vs wild type domain 11	B17
5.24 fold vs wild type domain 11	B18
0.49 fold vs wild type domain 11	B19
1.83 fold vs wild type domain 11	B20
6.12 fold vs wild type domain 11	B12
0.88 fold vs wild type domain 11	B21
2.75 fold vs wild type domain 11	B22
3.87 fold vs wild type domain 11	B23
0.57 fold vs wild type domain 11	B24
2.79 fold vs wild type domain 11	B1
1.8 fold vs wild type domain 11	B25
0.48 fold vs wild type domain 11	B26
1.94 fold vs wild type domain 11	B27

The binders below were run against T1, Insulin-like Growth Factor II (IGF-II), … (assay: SPR, biotinylated IGF-II on a streptavidin chip, domain 11 protein injected as analyte at 16384 to 32 nM).
Experimental: The polymorphism G1619R (l) has an apparent wild type interaction and the E1544A (d) mutation has a modest positive affect on IGF-II binding.
as §2, with “In all cases the minor component made an insignificant contribution to the overall affinity and as such only the kinetic parameters of the major binding component were used.” left out, “In order to investigate the influence of ionic strength, kinetic experiments were conducted in HBS-EP running buffers containing the desired NaCl concentration. In each case, analyte samples were made up in the appropriate running buffer prior to injection.” left out
Following purification, the binding of each mutant construct to IGF2 was assessed by SPR and compared to the wild type domain 11. […]

binding result	Binder
no binding (tested: 16384 nM)	B28
